One block for each molecule: values may come before it. Where no end group is shown, it is not given here.
Experiments:
Assay in all cases: cell-based or functional assay
[1] = molecular target: MRGA4-GFP fusion protein (mouse) (UniProt Q91WW2)
[2] = molecular target: T1, MRGA1-GFP fusion protein (mouse, UniProt Q91WW5 1-304)
T1 sequence: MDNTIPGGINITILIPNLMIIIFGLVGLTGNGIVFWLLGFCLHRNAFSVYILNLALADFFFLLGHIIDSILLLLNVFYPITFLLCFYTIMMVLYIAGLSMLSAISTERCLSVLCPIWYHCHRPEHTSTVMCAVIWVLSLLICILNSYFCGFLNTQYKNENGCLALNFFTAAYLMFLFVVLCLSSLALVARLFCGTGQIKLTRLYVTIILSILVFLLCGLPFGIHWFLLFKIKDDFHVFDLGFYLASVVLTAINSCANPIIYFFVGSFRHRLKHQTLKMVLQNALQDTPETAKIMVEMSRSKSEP

[3] = molecular target: MAS1

Chain of MRGA4-GFP fusion protein (mouse) (Q91WW2 9-313 A204G limits assumed, form in doubt): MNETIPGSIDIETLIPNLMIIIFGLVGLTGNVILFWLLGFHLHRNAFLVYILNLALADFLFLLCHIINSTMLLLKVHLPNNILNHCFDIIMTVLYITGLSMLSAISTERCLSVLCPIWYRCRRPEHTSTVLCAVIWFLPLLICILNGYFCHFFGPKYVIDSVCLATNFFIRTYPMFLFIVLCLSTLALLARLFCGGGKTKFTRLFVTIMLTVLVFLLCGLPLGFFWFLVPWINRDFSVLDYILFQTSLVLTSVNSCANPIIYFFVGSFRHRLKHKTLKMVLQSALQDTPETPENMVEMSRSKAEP

- EC50 of calcium dose-response, HEK cells expressing G 15 (data not shown) [1]: 200 nM
- EC50 of calcium dose-response, HEK cells expressing G 15 (data not shown) [2]: 60 nM
Molecule: ACTH (peptide)

- EC50 of calcium dose-response, HEK cells expressing G 15 [1]: 60 nM
Molecule: NPAF (peptide)

- EC50 of calcium dose-response, HEK-G 15 cells [3]: 400 nM
- EC50 of calcium dose-response, HEK cells expressing G 15 [2]: 200 nM
Molecule: NPFF (peptide)

- EC50 of calcium dose-response, HEK cells expressing G 15 [2]: 20 nM
Molecule: FLRF-NH2 [FLRFamide]

Reference: patent publication EP1280904B1 (CALIFORNIA INSTITUTE OF TECHNOLOGY, dated 2005)
